The values that follow come from paper PMC10591911 (Cell reports, 2023).

Sequences and labels used below:
T1: recombinant Rim4(PxLm)-His6 (S. cerevisiae, UniProt P38741 1-713, P454E455L456 to A454E455G456)
T1 sequence (looked up): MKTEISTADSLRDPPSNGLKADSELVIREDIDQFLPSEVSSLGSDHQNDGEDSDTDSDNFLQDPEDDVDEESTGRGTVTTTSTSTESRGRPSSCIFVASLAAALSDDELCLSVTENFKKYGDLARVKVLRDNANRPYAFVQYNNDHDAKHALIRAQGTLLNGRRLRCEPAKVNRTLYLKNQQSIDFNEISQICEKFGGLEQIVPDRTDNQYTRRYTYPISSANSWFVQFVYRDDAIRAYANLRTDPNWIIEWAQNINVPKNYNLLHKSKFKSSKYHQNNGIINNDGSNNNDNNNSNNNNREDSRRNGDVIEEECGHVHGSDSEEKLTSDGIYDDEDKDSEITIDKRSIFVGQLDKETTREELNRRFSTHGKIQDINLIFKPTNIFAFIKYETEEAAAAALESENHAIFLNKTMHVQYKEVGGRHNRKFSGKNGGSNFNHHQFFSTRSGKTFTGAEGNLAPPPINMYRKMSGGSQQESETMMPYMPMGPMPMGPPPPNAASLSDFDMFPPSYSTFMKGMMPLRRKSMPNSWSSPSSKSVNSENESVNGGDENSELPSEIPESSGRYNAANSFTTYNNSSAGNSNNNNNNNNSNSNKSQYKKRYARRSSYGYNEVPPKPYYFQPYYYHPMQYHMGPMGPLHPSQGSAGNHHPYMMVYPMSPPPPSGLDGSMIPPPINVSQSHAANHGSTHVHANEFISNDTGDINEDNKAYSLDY

T2: Bmh1 (S. cerevisiae (endogenous in W303 …, UniProt P29311 1-267))
T2 sequence (looked up): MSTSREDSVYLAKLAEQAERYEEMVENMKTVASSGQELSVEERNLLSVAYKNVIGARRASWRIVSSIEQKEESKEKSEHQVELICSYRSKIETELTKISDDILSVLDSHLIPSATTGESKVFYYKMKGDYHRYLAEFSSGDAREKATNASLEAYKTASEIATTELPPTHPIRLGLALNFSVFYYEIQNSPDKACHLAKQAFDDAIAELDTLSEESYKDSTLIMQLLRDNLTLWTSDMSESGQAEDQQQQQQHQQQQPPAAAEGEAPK

B1: recombinant 6His-3FLAG-Cdc14 (enzyme, S. cerevisiae, UniProt Q00684 1-551, looked up)
chain: MRRSVYLDNTIEFLRGRVYLGAYDYTPEDTDELVFFTVEDAIFYNSFHLDFGPMNIGHLYRFAVIFHEILNDPENANKAVVFYSSASTRQRANAACMLCCYMILVQAWTPHQVLQPLAQVDPPFMPFRDAGYSNADFEITIQDVVYGVWRAKEKGLIDLHSFNLESYEKYEHVEFGDFNVLTPDFIAFASPQEDHPKGYLATKSSHLNQPFKSVLNFFANNNVQLVVRLNSHLYNKKHFEDIGIQHLDLIFEDGTCPDLSIVKNFVGAAETIIKRGGKIAVHCKAGLGRTGCLIGAHLIYTYGFTANECIGFLRFIRPGMVVGPQQHWLYLHQNDFREWKYTTRISLKPSEAIGGLYPLISLEEYRLQKKKLKDDKRVAQNNIEGELRDLTMTPPSNGHGALSARNSSQPSTANNGSNSFKSSAVPQTSPGQPRKGQNGSNTIEDINNNRNPTSHANRKVVIESNNSDDESMQDTNGTSNHYPKVSRKKNDISSASSSRMEDNEPSATNINNAADDTILRQLLPKNRRVTSGRRTTSAAGGIRKISGSIKK
B2: Bmh2 (natural protein, UniProt P34730 1-273, looked up)
chain: MSQTREDSVYLAKLAEQAERYEEMVENMKAVASSGQELSVEERNLLSVAYKNVIGARRASWRIVSSIEQKEESKEKSEHQVELIRSYRSKIETELTKISDDILSVLDSHLIPSATTGESKVFYYKMKGDYHRYLAEFSSGDAREKATNSSLEAYKTASEIATTELPPTHPIRLGLALNFSVFYYEIQNSPDKACHLAKQAFDDAIAELDTLSEESYKDSTLIMQLLRDNLTLWTSDISESGQEDQQQQQQQQQQQQQQQQQAPAEQTQGEPTK
B3: recombinant Rim4(ΔC289)-His6 (domain or fragment, S. cerevisiae, UniProt P38741 1-424, looked up)
chain: MKTEISTADSLRDPPSNGLKADSELVIREDIDQFLPSEVSSLGSDHQNDGEDSDTDSDNFLQDPEDDVDEESTGRGTVTTTSTSTESRGRPSSCIFVASLAAALSDDELCLSVTENFKKYGDLARVKVLRDNANRPYAFVQYNNDHDAKHALIRAQGTLLNGRRLRCEPAKVNRTLYLKNQQSIDFNEISQICEKFGGLEQIVPDRTDNQYTRRYTYPISSANSWFVQFVYRDDAIRAYANLRTDPNWIIEWAQNINVPKNYNLLHKSKFKSSKYHQNNGIINNDGSNNNDNNNSNNNNREDSRRNGDVIEEECGHVHGSDSEEKLTSDGIYDDEDKDSEITIDKRSIFVGQLDKETTREELNRRFSTHGKIQDINLIFKPTNIFAFIKYETEEAAAAALESENHAIFLNKTMHVQYKEVGGRH

For test [1], the target named is recombinant Bmh1/2-EGFP-His6 (S. cerevisiae) (UniProt P29311). Description: pull-down.
The target in test [2] is recombinant Bmh2-EGFP-His6 (S. cerevisiae) (UniProt P34730). Nature of the test: pull-down.
Test [3] deals with recombinant Bmh1-EGFP-His6 (S. cerevisiae) (UniProt P29311). Description: pull-down.
The target in test [4] is Rim4-FLAG (S. cerevisiae) (UniProt P38741). Nature of the test: mass photometry.
The target of test [5] is T1, recombinant Rim4(PxLm)-His6. Description: pull-down.
For another test, the target named is T2, Bmh1. Description: mass photometry.
Test [6] addresses B1. Description: pull-down.

Consider “PKA-treated Rim4-His6 (Rim4-BBS-p) (from UniProt P38741 1-713) (natural protein)”, for which the mole ratio in the pull-down, printed 2.5:1 in test [1], in test [2] and in test [3] was 2.5 throughout.
For “Bmh2 (from UniProt P34730 1-273) (natural protein)”, in test [4], the stoichiometry N was 1.
On the same count and under the same terms, then “Bmh1 (from UniProt P29311 1-267) (natural protein)”, with 1.
For the molecule B1, the binding result in test [5] is “binds”.
On to B2, for which, in the test with Bmh1, the “stoichiometry N” value was 1.
For the molecule B3, the binding result in test [6] is listed as “binds”.

A word on the stoichiometry N: it is the number of molecules, sites or subunits per partner or assembly.
